Molecular target: the molecule itself
Assay: SEC

B1: CeLGRwt (full-length C. elegans LGR) (receptor)
chain: QNALSLAQTKHSCMALKAEDGEGCTCKQTKRYGQPECCCMGLIVSQLPTNLTADVGYLYLHNTSISVITPNFFDKFPSIRELEIDNSAHLEHIDGSSLSVLSKLRKLSVVKCPNLREISGKLLVNNTRIQNVILKNNGLATMPSLRMTDAHHVLLDRIDLSGNKIKFISDSKVRNVKARTVVLSENKLIEISGYAFTESQFLKLKLNNNPDLRSLSVDAFKNMAGLQTLDLSHTSIDTLPINGLKKLKTLILNDVPTLKSLPSVLSFTDLETAHFTYPHHCCLFKYVDDVTMNDNGKYQRNAKEIHKRICDKREQQKVARRRKRETSGIDFLDMLLKEWTDNSTYTGPDDADDDELPPFVEIGAEPCQSIGEEVQKYYSNITCYPQPDALNPCENIVGYPFLRIAVWVVCLAAIVGNIIVWALLGIVYEKRMRMHYLYMINMSVADMVTGIYLAVLAIADAKMSDEYYRHAVWWQTGWGCRAAGFLAVFASELGIISMFLIAFEMSYNTRQSFRGRRLSPKVGVLLMIGGWLFAIIMAILPWFDVSSYSESSVCLPLRAATIFDKSYLIFGLSFNFLAFAAMALSYGFIVKMLKENETREEDRALITKMTVLVVTDLICWFPTLFFGFTATIGFPLLSLSSAKFVLVFFFPINAFANPFLYVFFTEVIQHRVRSKTLPVIRRITTGPLNAASSLSNFYHSQPPGAHRRSRDEPTSPSGMHLAVTQTTSLNSTPRGSDVSRASDGMLFDYDRRASASPRVSFDIPISPTTPRSDRKNRISLLKRIVSSIPEVSDLSEHSSESHHEHVPHPRRKLRSSLNRILALGRRQEGSADSGRGSIASSAGSRDQNERVSLTSNASSILSPLLSPTNSNILILPPEPSKNRRKSTPAIPLLVVSDCS
  stoichiometry N: 2

From PMC12753827 (Nature Communications, 2025)
